Source: paper PMC3432913

Target: Ptch1-GFP (mouse) (UniProt Q61115)
Assay: cell surface binding assay

Sequence of UniProt Q61115 (Q61115 whole entry): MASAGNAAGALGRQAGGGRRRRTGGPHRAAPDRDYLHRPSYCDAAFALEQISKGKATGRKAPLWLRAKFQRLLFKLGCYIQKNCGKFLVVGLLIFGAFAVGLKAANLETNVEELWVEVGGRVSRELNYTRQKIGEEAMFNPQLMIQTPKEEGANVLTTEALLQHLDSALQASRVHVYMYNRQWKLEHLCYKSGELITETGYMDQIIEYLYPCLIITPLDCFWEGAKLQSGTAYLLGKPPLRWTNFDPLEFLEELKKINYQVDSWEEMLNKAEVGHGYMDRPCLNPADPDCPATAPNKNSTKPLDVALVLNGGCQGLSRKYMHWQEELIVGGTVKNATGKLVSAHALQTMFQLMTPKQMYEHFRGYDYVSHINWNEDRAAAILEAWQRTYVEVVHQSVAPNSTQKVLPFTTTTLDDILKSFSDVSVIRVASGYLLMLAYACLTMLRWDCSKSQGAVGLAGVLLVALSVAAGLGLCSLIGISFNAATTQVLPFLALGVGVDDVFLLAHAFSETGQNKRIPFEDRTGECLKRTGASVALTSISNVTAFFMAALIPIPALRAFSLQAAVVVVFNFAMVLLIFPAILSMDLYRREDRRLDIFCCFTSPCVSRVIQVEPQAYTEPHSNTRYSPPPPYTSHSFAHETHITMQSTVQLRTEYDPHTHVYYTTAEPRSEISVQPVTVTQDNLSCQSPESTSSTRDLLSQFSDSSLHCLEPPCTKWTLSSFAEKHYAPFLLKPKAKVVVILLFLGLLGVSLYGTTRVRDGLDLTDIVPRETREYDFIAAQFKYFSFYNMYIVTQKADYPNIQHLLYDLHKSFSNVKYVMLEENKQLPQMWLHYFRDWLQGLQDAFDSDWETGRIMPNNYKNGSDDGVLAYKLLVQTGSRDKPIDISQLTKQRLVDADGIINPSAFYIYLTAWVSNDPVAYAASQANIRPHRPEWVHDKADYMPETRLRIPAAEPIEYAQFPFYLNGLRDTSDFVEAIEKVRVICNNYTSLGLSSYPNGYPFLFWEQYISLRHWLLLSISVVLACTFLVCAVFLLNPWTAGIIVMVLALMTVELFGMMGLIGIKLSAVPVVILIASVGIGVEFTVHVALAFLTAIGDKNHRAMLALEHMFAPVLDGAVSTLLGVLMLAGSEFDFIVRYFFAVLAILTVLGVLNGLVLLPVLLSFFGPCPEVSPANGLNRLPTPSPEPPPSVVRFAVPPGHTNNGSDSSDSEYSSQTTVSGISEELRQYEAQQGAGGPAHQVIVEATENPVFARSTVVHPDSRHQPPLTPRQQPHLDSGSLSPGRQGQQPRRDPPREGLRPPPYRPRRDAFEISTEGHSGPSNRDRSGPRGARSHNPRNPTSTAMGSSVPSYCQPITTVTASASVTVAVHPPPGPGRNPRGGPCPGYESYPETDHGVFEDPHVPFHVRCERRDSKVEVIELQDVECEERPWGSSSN

| Substance | binding relative to Boc ecto-Fc [%] |
| --- | --- |
| Boc-Fc construct containing the FNIIIb domain alone (Fc fusion) | 60 |
| Boc-Fc construct containing the FNIIIa domain alone (Fc fusion) | 60 |
